Test results taken from patent US20260176378A1 (DYAX, published 2026).

B1: M6-D09 (Fab, V domains shown)
VH: EVQLLESGGGLVQPGGSLRLSCAASGFTFSFYYMVWVRQAPGKGLEWVSVIYPSGGITVYADSVKGRFTISRDNSKNTLYLQMNSLRAEDTAVYYCARDKWAVMPPYYYYAMDVWGQGTTVTVSS
VL: DIQMTQSPSSLSASVGDRVTITCRASQSIRNYLNWYQQKPGKAPNLLIYAASTLQSGVPARFSGSGSGTDFTLTISSLQPEDFATYYCQQLSGYPHTFGQGTKLEIK
notes: also called M06-D09; 559A-M06-D09
B2: M8-A09 (Fab, V domains shown)
VH: EVQLLESGGGLVQPGGSLRLSCAASGFTFSTYFMLWVRQAPGKGLEWVSSIYPSGGNTVYADSVKGRFTISRDNSKNTLYLQMNSLRAEDTAVYYCARAASPVRNYYYYGMDVWGQGTTVTVSS
VL: QCELTQPPSESVSPGQTANITCSGDKLGNKYAYWYQQKPGQSPVLVIYQDNNRPSGIPERFSGSNSGNTATLTISGTQAIDEANYYCQAWDSRTVVFGGGTKLTVL
B3: M10-F10 (Fab, V domains shown)
VH: EVQLLESGGGLVQPGGSLRLSCAASGFTFSFYNMNWVRQAPGKGLEWVSSISPSGGETNYADSVKGRFTISRDNSKNTLYLQMNSLRAEDTAVYYCARGGGAYRNNWWGGFDIWGLGTMVTVSS
VL: DIQMTQSPSSLSASVGDRVTITCRASQSISVYLNWYQHKPGKAPKLLIYGASNLQFGVPSRFSGSGYGTDFTLTISSLQPEDFATYHCQQTFSLFTFGGGTKVEIK

Columns and labels:
[1] = target: T1, pKal catalytic domain Mutant 2 (human, UniProt P03952 391-638); test: equilibrium Ki,app
T1 construct: Pichia pastoris; construct limits derived as for the wild type domain; not shown: His tag fusion
T1 sequence (P03952 other isoform, or with tags, fused parts or gaps mutant): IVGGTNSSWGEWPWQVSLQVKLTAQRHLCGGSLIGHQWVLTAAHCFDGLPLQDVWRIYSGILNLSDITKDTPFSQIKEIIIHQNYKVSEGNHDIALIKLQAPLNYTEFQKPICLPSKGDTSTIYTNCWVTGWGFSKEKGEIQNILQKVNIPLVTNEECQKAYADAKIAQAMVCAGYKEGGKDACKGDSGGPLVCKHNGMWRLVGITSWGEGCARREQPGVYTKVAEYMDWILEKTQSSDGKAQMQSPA
Method: Enzyme and inhibitor were pre-incubated for 2 hours at 30° C. in a 96-well plate by adding 10 μL of a 10× enzyme solution and 10 μL of 10× inhibitor solutions to 70 μL of reaction buffer. Reactions were initiated by the addition of 10 μL of a 10× concentrated stock of substrate, and were monitored at 30° C. in a fluorescence plate reader with the excitation and emission wavelengths set at 360 nm/460 nm, respectively. Kinetic data were acquired by the increase in fluorescence, and initial rates for each condition were plotted against the total inhibitor concentration. The data was fit to the following equation for tight binding inhibitors: […]

[2] = target: T2, human plasma kallikrein (human, UniProt P03952 20-390; P03952 391-638); test: ELISA, biotinylated pKal signal over streptavidin background
T2 construct: two disulfide-linked chains; NP_000883.2; also called pKal; hpKal
T2 sequence (P03952 20-390 limits assumed, chain 1 of 2): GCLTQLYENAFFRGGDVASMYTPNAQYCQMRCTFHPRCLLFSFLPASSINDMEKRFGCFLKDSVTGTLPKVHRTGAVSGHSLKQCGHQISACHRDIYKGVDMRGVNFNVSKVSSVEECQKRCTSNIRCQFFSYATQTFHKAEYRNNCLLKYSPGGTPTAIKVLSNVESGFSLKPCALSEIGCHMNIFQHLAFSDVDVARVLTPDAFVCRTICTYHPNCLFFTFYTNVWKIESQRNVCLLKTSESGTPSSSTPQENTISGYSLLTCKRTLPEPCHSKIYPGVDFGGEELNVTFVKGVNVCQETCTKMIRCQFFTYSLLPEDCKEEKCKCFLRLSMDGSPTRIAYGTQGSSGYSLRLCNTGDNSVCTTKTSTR
T2 sequence (P03952 391-638 limits assumed, chain 2 of 2): as the sequence (P03952 other isoform, or with tags, fused parts or gaps mutant) above, with A161R, A163Q, A165Y, A168T, A170R counted along it

fold change of Ki,app against the wild type catalytic domain [1] [fold] | ELISA (T/B) [2] | Binder
~5 | 39.9 | B1
– | 5.4 | B2
– | 39.2 | B3
